From patent US20060270591A1, “Androgen receptor coregulators” (priority 2002, published 2006)

Target: T1, PR (Homo sapiens, UniProt P06401)
T1 construct: expressed in transfected cells; host or cells: DU145, PC-3
T1 sequence (P06401 1-933): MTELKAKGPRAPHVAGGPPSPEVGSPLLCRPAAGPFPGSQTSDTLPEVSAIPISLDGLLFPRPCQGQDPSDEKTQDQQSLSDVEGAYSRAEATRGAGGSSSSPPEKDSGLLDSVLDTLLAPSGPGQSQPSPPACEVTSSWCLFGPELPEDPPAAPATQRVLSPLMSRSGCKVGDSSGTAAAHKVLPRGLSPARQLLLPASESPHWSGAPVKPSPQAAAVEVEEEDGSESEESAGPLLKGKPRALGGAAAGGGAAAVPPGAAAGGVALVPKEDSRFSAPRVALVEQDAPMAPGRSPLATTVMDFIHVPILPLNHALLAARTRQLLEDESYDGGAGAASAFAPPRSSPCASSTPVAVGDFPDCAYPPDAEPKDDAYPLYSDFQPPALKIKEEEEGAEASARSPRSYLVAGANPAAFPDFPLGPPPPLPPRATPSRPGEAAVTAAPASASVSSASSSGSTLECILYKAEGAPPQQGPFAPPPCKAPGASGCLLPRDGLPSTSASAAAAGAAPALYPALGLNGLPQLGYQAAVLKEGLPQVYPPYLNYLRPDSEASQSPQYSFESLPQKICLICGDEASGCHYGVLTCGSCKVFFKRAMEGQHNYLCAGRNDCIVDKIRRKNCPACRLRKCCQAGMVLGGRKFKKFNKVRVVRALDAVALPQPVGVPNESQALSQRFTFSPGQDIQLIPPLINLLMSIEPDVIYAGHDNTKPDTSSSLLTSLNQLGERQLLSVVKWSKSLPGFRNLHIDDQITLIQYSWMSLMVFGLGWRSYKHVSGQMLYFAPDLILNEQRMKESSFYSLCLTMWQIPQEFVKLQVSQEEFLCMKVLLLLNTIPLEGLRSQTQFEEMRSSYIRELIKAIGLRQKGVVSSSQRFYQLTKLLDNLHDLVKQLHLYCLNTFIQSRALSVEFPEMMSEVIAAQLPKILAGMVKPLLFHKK
Assay: PR transactivation with ARA70 in DU145 cells (Example 3)
Type: cell-based
Protocol: 411. Human prostate cancer DU145 and PC-3 cells were maintained in […] (DMEM) containing penicillin (25 U/ml), streptomycin (25 μg/ml), and 5% fetal calf serum (FCS). Human LNCaP cells were maintained in RPMI containing penicillin (25 U/ml), streptomycin (25 μg/ml), and 10% FCS. Transfections were performed using the calcium phosphate precipitation method, as previously described (Dynlacht et al. (1991) Cell 66, 563-576). Briefly, 4×10^5 cells were plated on 60-mm dishes 24 hours before transfection, and the medium was changed to DMEM with 5% charcoal-dextran stripped FCS (CS-FBS) one hour before transfection. Transfection medium contained a constant amount of reporter plasmid and indicated amounts of pSG5-receptor, ARA70, or pCMX-GAL fusion construct using pSG5 as a carrier to provide equal amounts of transfected DNA. Twenty-four hours after transfection, the medium was changed again, and the cells were treated with DHT or other treatments. After another 24 hours, the cells were harvested for chloramphenicol transferase (CAT) or luciferase assays. At least three independent experiments were carried out in each case. Superfect (Qiagen) was used for transfection in LNCaP cells. The transfection conditions followed the manufacturer's protocol. […]

Substance: ARA70: ligand-enhanced AR coregulator, full length ARA70
- enhancement of PR transactivation: 2-3 fold
